From publication PMC5368172

Key:
[1] = target: SCM on the surface of S. canis strain G361 (Streptococcus canis (endogenous in strain G361)); test: radioligand binding; iodinated IgG or iodinated plasminogen incubated with whole S. canis bacteria, gamma-counting, percent bound; inhibition with 1.0 μM non-labeled IgG or plasminogen
[2] = target: HRP-conjugated human IgG (human); test: ELISA; competitive: wells coated with 5 μg full length SCM; HRP-conjugated human IgG (1:200) pre-incubated 15 min with 10 μg SCM, FOG or KO173225, then added for 2 h

Row | Substance | percent bound [1] [%] | percent bound with excess non-radiolabeled plasminogen [1] [%] | IgG binding to immobilized SCM left after pre-incubation of IgG with 10 μg SCM, percent [2] [%]
1 | human plasminogen (natural protein) | 37.1 | 23.3 | –
2 | recombinant SCM, the M protein of Streptococcus canis (natural protein) | – | – | 20
